Results from patent publication US20030021770A1.

Target: mini-MUC1 polypeptide (product of the miMUC1 gene, human DF3/MUC1 with 7 variant tandem repeats) (human) (UniProt P15941)
Test: flow cytometry, 1 ug/ml DF3 MAb on MC38/MUC1 cells, fluorescein-labeled goat anti-mouse IgG

UniProt P15941, sequence (P15941 other isoform, or with tags, fused parts or gaps mutant, form in doubt): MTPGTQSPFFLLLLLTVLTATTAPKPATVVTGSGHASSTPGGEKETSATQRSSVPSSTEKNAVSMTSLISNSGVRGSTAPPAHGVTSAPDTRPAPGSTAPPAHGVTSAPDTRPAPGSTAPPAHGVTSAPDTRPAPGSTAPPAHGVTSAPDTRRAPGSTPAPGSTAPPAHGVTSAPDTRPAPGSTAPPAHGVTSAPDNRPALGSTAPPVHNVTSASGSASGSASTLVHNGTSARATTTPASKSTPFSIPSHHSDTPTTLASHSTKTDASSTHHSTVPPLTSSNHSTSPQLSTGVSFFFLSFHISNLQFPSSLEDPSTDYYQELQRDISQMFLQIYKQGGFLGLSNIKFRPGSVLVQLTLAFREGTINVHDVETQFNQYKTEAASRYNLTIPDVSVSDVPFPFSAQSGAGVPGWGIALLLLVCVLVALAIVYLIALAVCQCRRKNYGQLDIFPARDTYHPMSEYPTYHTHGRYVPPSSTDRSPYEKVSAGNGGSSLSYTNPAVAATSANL

DF3 monoclonal antibody (anti-MUC1)
mean fluorescence: 400 | percent of cells positive: 87.5%
